Experimental data: the supplement of paper PMC10567573

B1: TMEM106C (parent)
chain: FTGRDSITCLTCQGTGYIPTEQVN

Variants of: B1
Assay: protein stability index of a GFP-peptide fusion (GPS, HEK-293T) (PSI 1-6); higher = more stable
Details: c terminus: a fixed tail appended
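Further: lentivirally expressed fusions sorted by FACS into six bins by GFP to DsRed ratio, PSI derived from sequencing read proportions per bin multiplied by bin number.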

Variant | protein stability index
FTGRDSIPCLTCQGTGYIPTEQVN [T8P] | 1.9
FTGRDSISCLTCQGTGYIPTEQVN [T8S] | 2.4
FTGRDSIECLTCQGTGYIPTEQVN [T8E] | 1.84
FTGRDSIYCLTCQGTGYIPTEQVN [T8Y] | 2.15
FTGRDSIWCLTCQGTGYIPTEQVN [T8W] | 2.22
FTGRDSIDCLTCQGTGYIPTEQVN [T8D] | 2.37
FTGRDSIHCLTCQGTGYIPTEQVN [T8H] | 2.28
FTGRDSICCLTCQGTGYIPTEQVN [T8C] | 2.11
FTGRDSILCLTCQGTGYIPTEQVN [T8L] | 2
FTGRDSIFCLTCQGTGYIPTEQVN [T8F] | 3.56
FTGRDSIACLTCQGTGYIPTEQVN [T8A] | 2.91
FTGRDSIKCLTCQGTGYIPTEQVN [T8K] | 1.79
FTGRDSINCLTCQGTGYIPTEQVN [T8N] | 1.92
FTGRDSIMCLTCQGTGYIPTEQVN [T8M] | 2.4
FTGRDSIICLTCQGTGYIPTEQVN [T8I] | 1.82
FTGRDSIQCLTCQGTGYIPTEQVN [T8Q] | 2.37
FTGRDSIRCLTCQGTGYIPTEQVN [T8R] | 1.41
FTGRDSIVCLTCQGTGYIPTEQVN [T8V] | 2.09
FVGRDSITCLTCQGTGYIPTEQVN [T2V] | 2.87
FMGRDSITCLTCQGTGYIPTEQVN [T2M] | 2.95
FHGRDSITCLTCQGTGYIPTEQVN [T2H] | 3.35
FQGRDSITCLTCQGTGYIPTEQVN [T2Q] | 2.91
FCGRDSITCLTCQGTGYIPTEQVN [T2C] | 2.63
FSGRDSITCLTCQGTGYIPTEQVN [T2S] | 2.07

Variant | protein stability index
FAGRDSITCLTCQGTGYIPTEQVN [T2A] | 2.81
FDGRDSITCLTCQGTGYIPTEQVN [T2D] | 4.1
FPGRDSITCLTCQGTGYIPTEQVN [T2P] | 2.82
FLGRDSITCLTCQGTGYIPTEQVN [T2L] | 2.61
FFGRDSITCLTCQGTGYIPTEQVN [T2F] | 3.19
FGGRDSITCLTCQGTGYIPTEQVN [T2G] | 2.84
FRGRDSITCLTCQGTGYIPTEQVN [T2R] | 4.04
FNGRDSITCLTCQGTGYIPTEQVN [T2N] | 3.32
FKGRDSITCLTCQGTGYIPTEQVN [T2K] | 4.3
FYGRDSITCLTCQGTGYIPTEQVN [T2Y] | 3.3
FWGRDSITCLTCQGTGYIPTEQVN [T2W] | 2.31
FIGRDSITCLTCQGTGYIPTEQVN [T2I] | 1.97
FEGRDSITCLTCQGTGYIPTEQVN [T2E] | 4.48
YTGRDSITCLTCQGTGYIPTEQVN [F1Y] | 1.99
PTGRDSITCLTCQGTGYIPTEQVN [F1P] | 4.63
WTGRDSITCLTCQGTGYIPTEQVN [F1W] | 4.06
ATGRDSITCLTCQGTGYIPTEQVN [F1A] | 4.7
ITGRDSITCLTCQGTGYIPTEQVN [F1I] | 3.94
LTGRDSITCLTCQGTGYIPTEQVN [F1L] | 4.16
DTGRDSITCLTCQGTGYIPTEQVN [F1D] | 4.88
GTGRDSITCLTCQGTGYIPTEQVN [F1G] | 4.15
QTGRDSITCLTCQGTGYIPTEQVN [F1Q] | 4.65
VTGRDSITCLTCQGTGYIPTEQVN [F1V] | 4.43
ETGRDSITCLTCQGTGYIPTEQVN [F1E] | 4.7

Variant | protein stability index
KTGRDSITCLTCQGTGYIPTEQVN [F1K] | 4.29
RTGRDSITCLTCQGTGYIPTEQVN [F1R] | 4.35
TTGRDSITCLTCQGTGYIPTEQVN [F1T] | 4.76
NTGRDSITCLTCQGTGYIPTEQVN [F1N] | 4.48
MTGRDSITCLTCQGTGYIPTEQVN [F1M] | 4.77
STGRDSITCLTCQGTGYIPTEQVN [F1S] | 4.33
CTGRDSITCLTCQGTGYIPTEQVN [F1C] | 3.92
HTGRDSITCLTCQGTGYIPTEQVN [F1H] | 4.52
FTGRDSITILTCQGTGYIPTEQVN [C9I] | 3.25
FTGRDSITYLTCQGTGYIPTEQVN [C9Y] | 2.75
FTGRDSITFLTCQGTGYIPTEQVN [C9F] | 2.86
FTGRDSITNLTCQGTGYIPTEQVN [C9N] | 1.94
FTGRDSITLLTCQGTGYIPTEQVN [C9L] | 2.04
FTGRDSITSLTCQGTGYIPTEQVN [C9S] | 2.28
FTGRDSITELTCQGTGYIPTEQVN [C9E] | 2.73
FTGRDSITVLTCQGTGYIPTEQVN [C9V] | 1.9
FTGRDSITALTCQGTGYIPTEQVN [C9A] | 2
FTGRDSITGLTCQGTGYIPTEQVN [C9G] | 1.75
FTGRDSITTLTCQGTGYIPTEQVN [C9T] | 1.82
FTGRDSITDLTCQGTGYIPTEQVN [C9D] | 3.16
FTGRDSITPLTCQGTGYIPTEQVN [C9P] | 2.1
FTGRDSITKLTCQGTGYIPTEQVN [C9K] | 2.17
FTGRDSITHLTCQGTGYIPTEQVN [C9H] | 1.73
FTGRDSITRLTCQGTGYIPTEQVN [C9R] | 1.52

Variant | protein stability index
FTGRDSITMLTCQGTGYIPTEQVN [C9M] | 2.88
FTGRDSITQLTCQGTGYIPTEQVN [C9Q] | 1.68
FTGRDSFTCLTCQGTGYIPTEQVN [I7F] | 1.6
FTGRDSTTCLTCQGTGYIPTEQVN [I7T] | 2.78
FTGRDSYTCLTCQGTGYIPTEQVN [I7Y] | 2.68
FTGRDSMTCLTCQGTGYIPTEQVN [I7M] | 1.76
FTGRDSDTCLTCQGTGYIPTEQVN [I7D] | 2.83
FTGRDSRTCLTCQGTGYIPTEQVN [I7R] | 2.15
FTGRDSCTCLTCQGTGYIPTEQVN [I7C] | 1.73
FTGRDSATCLTCQGTGYIPTEQVN [I7A] | 2.22
FTGRDSETCLTCQGTGYIPTEQVN [I7E] | 2.89
FTGRDSHTCLTCQGTGYIPTEQVN [I7H] | 2.09
FTGRDSPTCLTCQGTGYIPTEQVN [I7P] | 2.23
FTGRDSQTCLTCQGTGYIPTEQVN [I7Q] | 2.5
FTGRDSLTCLTCQGTGYIPTEQVN [I7L] | 2.07
FTGRDSSTCLTCQGTGYIPTEQVN [I7S] | 2.39
FTGRDSVTCLTCQGTGYIPTEQVN [I7V] | 1.77
FTGRDSNTCLTCQGTGYIPTEQVN [I7N] | 2.15
FTGRDSWTCLTCQGTGYIPTEQVN [I7W] | 3.32
FTGRDSGTCLTCQGTGYIPTEQVN [I7G] | 2.16
FTGRDSKTCLTCQGTGYIPTEQVN [I7K] | 2.32
FTDRDSITCLTCQGTGYIPTEQVN [G3D] | 1.85
